Measurements: article PMC4004541, “PEG-Like Nanoprobes: Multimodal, Pharmacokinetically and Optically Tunable Nanomaterials” (PLoS ONE, 2014)

What was measured:
[1] = Quantum yield of fluorochrome-bearing peptides and PN's; format: physicochemical; conditions: means±1 S.D.
From the text: (The p values showing significances are in Figure S2 in File S1). […] PEG attachment increased quantum yields in all cases, but as discussed below the magnitude of PEG generated improvement varied with the fluorochrome chosen. A mechanism for the PEG improvement of quantum yield is fluorochrome shielding, or the blocking of fluorochrome-fluorochrome interactions that result in quenching.
However, the magnitude of these benefits varied with the fluorochrome selected. […] Previous studies indicated PEGylated, fluorochrome-bearing peptides have absorption spectra in PBS similar to their unstacked absorption spectra in methanol. […] It appears that longer wavelength fluorochromes have stronger fluorochrome/fluorochrome stacking interactions, which result in more quenching, which is blocked by PEG and which gives rise to larger increases in quantum yield.

[2] = Probe size (volume) by FPLC calibrated with globular protein standards; format: physicochemical; conditions: for Volume FPLC, globular protein equivalent molecular volume: Superdex 200 10/300GL, 0.05 M sodium phosphate, 0.1 M NaCl (0.1% Tween, pH 7.2), 0.8 ml/min, calibrated with globular protein standards; for Volume FPLC Dia. (diameter): globular protein equivalent volume from FPLC converted to spherical diameter by formula (ref 15)
From the text: FPLC chromatograms are shown for PN’s bearing the IR-783 fluorochrome with PEG’s ranging from 2 to 40 kDa ( Figure 2A ). FPLC was calibrated with globular protein standards, and globular protein equivalent molecular volumes (in kDa) were obtained ( Table 1 , column 5). Next, these globular protein equivalent molecular volumes were converted to PN diameters in nm using the relationship: [drawing 1] where M is the molecular weight of a globular protein expressed in daltons. PN diameters ranged from 3.0 to 11.7 nm, which means PN’s can be smaller or larger than albumin (MW = 67 kDa; diameter = 5.4 nm, by the formula above). Thus Table 1 column 5 gives the PN volumes obtained from FPLC expressed in two ways: (i) as the molecular weight in kDa of globular proteins with equivalent volumes, permitting size comparison of PN’s to proteins, and, (ii) as spherical diameters (“Dia.”) in nm, permitting size comparisons of a PN to relative to other nanomaterials. We confirmed the sizes obtained with FPLC by measuring the size of PN(783)11.7 by dynamic light scattering (11.7 nm).
The mass spec of low molecular weight (MW) materials were obtained by MS-ESI Micromass (Waters) and high MW molecules were determined through MALDI-TOF analyses at the Tufts University Core Facility. RP-HPLC (Varian ProStar detector and delivery modules) employed an eluant A (0.1% TFA/water) and eluant B (0.1% TFA and 9.9% water in acetonitrile). Probe size (volume) was determined by FPLC using an ÄKTA Purifier 10 and SuperdexTM 200 10/300GL column (GE Healthcare) with a running buffer of 0.05 M sodium phosphate, 0.1 M NaCl (0.1% Tween, pH 7.2) and flow rate of 0.8 ml/min. Standards (GE Healthcare) were Ferritin, Ribonuclease A, Carbonic Anhydrase, and Conalbumin and Blue Dextran 2000. To obtain probe volumes, Mr (apparent molecular weight based on size exclusion retention) was plotted versus Kav. [drawing 7] , Vt = total volume, Ve = elution volume, Vo = void volume.
PN and peptide characterization: The mass spec of low molecular weights (MW) were obtained by MS-ESI Micromass (Waters) and high MW molecules were determined through MALDI-TOF analyses at the Tufts University Core Facility. RP-HPLC (Varian ProStar detector and delivery modules) employed an eluant A (0.1% TFA /water) and eluant B (0.1% TFA and 9.9% water in acetonitrile). […] Standards (GE Healthcare) were Ferritin, Ribonuclease A, Carbonic Anhydrase, and Conalbumin and Blue Dextran 2000. To obtain probe volumes, Mr (apparent molecular weight based on size exclusion retention) was plotted versus Kav. [picture] , Vt = total volume, Ve = elution volume, Vo = void volume.

HT-29 cells = experiment: Non-specific binding (NSB) to HT-29 cells by FACS; format: cell-based, human; conditions: 100 μL of nanoprobes (2 μM) added to 100 μl 2% FBS/DPBS, 30 min at 37 °C, means±1 S.D.
From the text: We next examined the non-specific binding (NSB) of PN’s to HT-29 cells based on the assumption that NSB minimization will correlate with a desirable minimization of post-IV injection retention. As noted above, after diagnostic drugs generate their added information, retention can only increase the risks of delayed toxicity. The attachment of PEG decreased the non-specific binding (NSB) to HT-29 cells, scored as the percent of cells above the cutoff for unstained cells seen with FACS ( Table 1 , column 7).
PN and peptide binding to cells (effect of PEGylation on NSB): HT-29, a human colon carcinoma cell line, was from the American Tissue Culture Collection and maintained according to their instructions. Cells were seeded on 24-well plates at 5X10^5 cells/well in culture medium (RPMI 1640 with 10% FBS) the day before the assay. The day of assay, medium was removed, wells rinsed twice with DPBS (+Ca, +Mg), and 100 μl of 2% FBS / DPBS (+Ca, +Mg) added. 100 μL of Nanoprobes (2 μM) in DPBS (+Ca, +Mg) was added to cells and incubated for 30min at 37 °C. (Probe concentrations were determined spectrophotometrically (783 nm, extinction coefficient of 314 471 cm^-1 M^-1 for IR-783; 497 nm, extinction coefficient of 68 000 cm^-1 M^-1 for Fluorescein; 545 nm, extinction coefficient of 150 000 cm^-1 M^-1 for Cy3). Cells were detached by Trypsin/EDTA and assayed for fluorescence by FACS (BD 7 laser LSR2 for nanoprobes with IR-783; BD 3 laser LSR2 for nanoprobes with Fluorescein or Cy3).
Figure S4: Effect of PEGylation on non-specific binding to cells by single channel FACS. […] Arrows indicates the cutoff for unstained cells.

[3] = Circulating form of PN's: FPLC of sera of injected mice; format: in vivo; conditions: 20 nmoles IV tail vein, nude mice, FPLC at 783 nm
Experimental: To see if the variable PN size could be translated into tunable pharmacokinetics, it was essential to first establish that PN’s circulated at PEG-determined, pre-injection dimensions. Mice were injected with PN’s and FPLC chromatograms of serum samples, taken at various times post injection ( Figures 2D, 2E and 2F ), compared with pre-injection PN samples. By using PN’s absorbing at 783 nm, chromatograms from the sera of injected mice reflect this PN, since there are no compounds in serum that absorb at this wavelength. […] Similarly, peaks for PN(783)6.1 ( Figure 2E ) and PN(783)4.3 ( Figure 2F ) where identical for pre-injection samples and for nanoprobes in the sera of injected mice. Thus, molecular weight of the PEG chosen determines PN dimensions in vitro and those dimensions are maintained after injection.
At the indicated time, 50 µl of blood was collected with microhematocrit capillary tube (Fisher Scientific) from the tail, and transferred to Eppendorf microcentrifuge tube with anticoagulant (EDTA) coating (Fisher Scientific). Tubes were centrifuged (5000 rpm for 5 min), and the supernatant was injected to the FPLC, a ÄKTA Purifier 10 with SuperdexTM 200 10/300GL column.
At the indicated time, 50 μl of blood was collected with microhematocrit capillary tube (Fisher Scientific) from the tail, and transferred to Eppendorf microcentrifuge tube with anticoagulant (EDTA) coating (Fisher Scientific). Tubes were centrifuged (5000 rpm for 5 min), and the supernatant was injected to the FPLC, a ÄKTA Purifier 10 with SuperdexTM 200 10/300GL column.

[4] = Elimination by whole animal surface fluorescence imaging; format: in vivo; conditions: mice, after injection, n = 6
Experimental: Surface fluorescence images for representative animals are shown and total surface fluorescence is quantified in bar graphs to the right of the image. […] The pharmacokinetics and biodistributions of these PN’s is further analyzed below.
Figure 3 Role PEG in determining elimination by surface fluorescence imaging. A) Animals were injected with unPEGylated peptide and imaged at the times indicated. Bar graph gives whole animal surface fluorescence determined as means and standard deviations, n = 6.
(§1) A Kodak FX multispectral imaging system was used (Carestream Molecular Imaging, Rochester, NY). Excitation at multiple wavelengths (620, 650, 690, 710, 720, 730, 750 and 760 nm) with the emission at 830 nm was setup for IR-783 spectrum; Excitation at multiple wavelengths (420, 440, 460, 480, 510, 520, 530, and 540 nm) with the emission at 600 nm was setup for Cy3 spectrum; Excitation at multiple wavelengths (450, 470, 510, 520, 530, 540, 550, 570, and 590 nm) with the emission at 700 nm was setup for mCherry; with manufacturer’s software to separate (unmix) the IR-783 spectrum, Cy3 spectrum, or mCherry spectrum from skin autofluorescence and chlorophyll fluorescence from food. X-ray images were taken after fluorescence images. […]
as §1, with “Whole animal surface fluorescence imaging: All animal experiments in this work were approved by the Institutional Review Committee of the Massachusetts General Hospital. […]” for “A Kodak FX multispectral imaging system was used (Carestream Molecular Imaging, Rochester, NY).”

Substance	Quant. Yield [1]	Volume FPLC, globular protein equivalent molecular volume [2] [kDa]	Volume FPLC Dia. (diameter) [2] [nm]	Cell NSB: percent of HT-29 cells above the cutoff for unstained cells (HT-29 cells) [%]	Circulating size: FPLC peaks of serum samples after injection versus pre-injection sample [3]	Elimination seen by whole animal surface fluorescence [4]
(DOTA)Lys(PEG 2 kDa)-Cys(IR-783) [PN(783)3.0, PEG-like Nanoprobe: 2 kDa PEG, IR-783 fluorochrome, DOTA peptide]	0.13±0.02	11.2	3.0	50±1	–	–
(DOTA)Lys(PEG 5 kDa)-Cys(Cy3) [PN(545)4.3, PEG-like Nanoprobe: 5 kDa PEG, Cy3 fluorochrome, DOTA peptide]	0.59±0.09	35	4.3	31±1	–	–
(DOTA)Lys(PEG 5 kDa)-Cys(Fl) [PN(497)4.3, PEG-like Nanoprobe: 5 kDa PEG, fluorescein, DOTA peptide]	0.59±0.06	35	4.3	0.2±0.1	–	–
(DOTA)Lys(PEG 10 kDa)-Cys(IR-783) [PN(783)6.1, PEG-like Nanoprobe: 10 kDa PEG, IR-783 fluorochrome, DOTA peptide]	0.16±0.03	100.7	6.1	14±1	identical	–
(DOTA)Lys(PEG 20 kDa)-Cys(IR 783) [PN(783)8.4, PEG-like Nanoprobe: 20 kDa PEG, IR-783 fluorochrome, DOTA peptide]	0.16±0.04	262.5	8.4	14±1	–	–
(DOTA)Lys(PEG 30 kDa)-Cys(Cy3) [PN(545)10.0, PEG-like Nanoprobe: 30 kDa PEG, Cy3 fluorochrome, DOTA peptide]	0.61±0.10	435	10.0	15±1	–	–
(DOTA)Lys-Cys(Cy3) [unPEGylated DOTA peptide with Cy3 fluorochrome on the cysteine side chain]	0.32±0.07	–	–	98±1	–	–
(DOTA)Lys-Cys(Fl) [unPEGylated DOTA peptide with fluorescein on the cysteine side chain]	0.50±0.11	–	–	0.4±0.1	–	–
(DOTA)Lys-Cys(IR-783) [unPEGylated DOTA peptide with IR-783 fluorochrome on the cysteine side chain]	0.053±0.008	–	–	95±1	–	slow and incomplete elimination
